Consider three substances from patent publication US20250250314.

Sequence of MMP8 (chain, as listed by the source): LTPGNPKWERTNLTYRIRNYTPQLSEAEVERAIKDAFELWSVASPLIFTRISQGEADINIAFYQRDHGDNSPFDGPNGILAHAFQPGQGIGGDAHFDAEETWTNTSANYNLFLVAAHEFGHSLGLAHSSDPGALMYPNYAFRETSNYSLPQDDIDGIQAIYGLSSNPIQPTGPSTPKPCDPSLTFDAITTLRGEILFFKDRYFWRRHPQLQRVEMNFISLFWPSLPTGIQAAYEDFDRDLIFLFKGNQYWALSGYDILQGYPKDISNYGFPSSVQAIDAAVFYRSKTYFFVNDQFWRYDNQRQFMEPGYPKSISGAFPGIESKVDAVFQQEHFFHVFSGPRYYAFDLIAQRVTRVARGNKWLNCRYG
Sequence of Cathepsin L (chain, as listed by the source): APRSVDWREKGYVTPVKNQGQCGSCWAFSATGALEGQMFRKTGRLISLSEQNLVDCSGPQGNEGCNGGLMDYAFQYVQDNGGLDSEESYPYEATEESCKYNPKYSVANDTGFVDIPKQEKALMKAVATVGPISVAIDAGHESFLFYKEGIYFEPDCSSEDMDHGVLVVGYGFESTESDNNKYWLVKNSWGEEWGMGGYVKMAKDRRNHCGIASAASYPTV
Sequence of MMP9 (chain, as listed by the source): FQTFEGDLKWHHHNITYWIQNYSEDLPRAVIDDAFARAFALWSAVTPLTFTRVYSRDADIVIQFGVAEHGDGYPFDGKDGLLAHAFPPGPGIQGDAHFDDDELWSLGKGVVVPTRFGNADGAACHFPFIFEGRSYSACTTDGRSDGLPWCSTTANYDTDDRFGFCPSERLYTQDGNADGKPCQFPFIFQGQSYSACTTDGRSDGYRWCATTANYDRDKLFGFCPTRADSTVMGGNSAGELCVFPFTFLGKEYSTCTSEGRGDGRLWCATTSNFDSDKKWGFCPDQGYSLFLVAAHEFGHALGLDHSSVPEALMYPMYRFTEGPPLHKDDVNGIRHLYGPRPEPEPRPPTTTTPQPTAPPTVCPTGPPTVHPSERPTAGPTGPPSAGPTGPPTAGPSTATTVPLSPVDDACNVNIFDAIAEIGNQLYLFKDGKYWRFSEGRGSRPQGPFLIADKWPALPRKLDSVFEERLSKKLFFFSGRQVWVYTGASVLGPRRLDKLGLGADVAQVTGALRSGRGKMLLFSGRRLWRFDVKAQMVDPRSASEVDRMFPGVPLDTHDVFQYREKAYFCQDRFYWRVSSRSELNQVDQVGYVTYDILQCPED

The data set relates to UCM12.
Sequence of UCM12 (chain, as listed by the source, chain 1 of 3, other chains not shown): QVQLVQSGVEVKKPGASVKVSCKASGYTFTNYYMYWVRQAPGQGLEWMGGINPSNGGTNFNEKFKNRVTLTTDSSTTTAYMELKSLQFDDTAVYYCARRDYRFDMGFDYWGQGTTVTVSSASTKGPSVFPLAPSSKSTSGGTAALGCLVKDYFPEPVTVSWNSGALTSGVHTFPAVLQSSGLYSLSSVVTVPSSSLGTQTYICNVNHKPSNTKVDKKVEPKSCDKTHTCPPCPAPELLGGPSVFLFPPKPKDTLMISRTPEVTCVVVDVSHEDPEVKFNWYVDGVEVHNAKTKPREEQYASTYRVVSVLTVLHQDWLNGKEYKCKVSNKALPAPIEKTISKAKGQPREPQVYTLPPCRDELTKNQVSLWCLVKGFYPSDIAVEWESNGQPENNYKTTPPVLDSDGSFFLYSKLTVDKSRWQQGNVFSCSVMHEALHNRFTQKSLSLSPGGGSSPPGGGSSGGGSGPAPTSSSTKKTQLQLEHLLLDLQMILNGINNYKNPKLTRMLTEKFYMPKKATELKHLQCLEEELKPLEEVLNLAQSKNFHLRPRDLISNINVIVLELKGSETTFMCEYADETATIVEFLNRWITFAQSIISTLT
Sequence of UCM12 (chain, as listed by the source, chain 2 of 3, other chains not shown): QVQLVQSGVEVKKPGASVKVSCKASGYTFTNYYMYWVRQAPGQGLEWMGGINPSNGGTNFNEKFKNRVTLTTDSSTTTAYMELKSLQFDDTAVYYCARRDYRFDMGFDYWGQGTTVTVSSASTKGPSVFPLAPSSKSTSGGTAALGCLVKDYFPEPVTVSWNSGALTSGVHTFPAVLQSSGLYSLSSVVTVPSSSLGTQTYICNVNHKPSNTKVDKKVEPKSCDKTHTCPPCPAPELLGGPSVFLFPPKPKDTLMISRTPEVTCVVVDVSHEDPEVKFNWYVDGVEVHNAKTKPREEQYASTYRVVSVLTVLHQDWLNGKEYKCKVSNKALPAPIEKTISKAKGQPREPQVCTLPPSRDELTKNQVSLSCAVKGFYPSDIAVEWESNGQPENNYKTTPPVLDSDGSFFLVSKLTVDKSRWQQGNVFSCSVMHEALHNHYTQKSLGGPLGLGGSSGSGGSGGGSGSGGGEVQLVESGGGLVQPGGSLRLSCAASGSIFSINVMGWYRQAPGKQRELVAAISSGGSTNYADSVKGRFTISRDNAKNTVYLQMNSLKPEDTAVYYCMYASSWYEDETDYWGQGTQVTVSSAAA
For orientation: kcat/Km means the second-order rate constant that governs catalysis at low substrate concentration. Take Cathepsin L: the kcat/Km turned out to be 14000 M⁻¹ s⁻¹.
With MMP8, the kcat/Km was 810 M⁻¹ s⁻¹.
The same measure for MMP9: 7900 M⁻¹ s⁻¹.
